These results are taken from the nanobody polyreactivity screen of Harvey et al. (2022).

The series is described as follows: yeast display, Sf9 membrane polyspecificity reagent, FACS + sequencing; frameworks hold sequencing errors. In outline: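 Galactose-induced (36–48 hours) yeast carrying a synthetic nanobody display library were exposed to 10% biotinylated, detergent-solubilized Sf9 membrane reagent at 4 °C for 1 hour. FACS followed streptavidin microbead enrichment, using low and high (top ~1%) gates for expression (anti-HA) and reagent binding (streptavidin). Colony PCR, MiSeq 2 × 250 sequencing and CDR-length filtering followed. Labels for polyreactivity reflect the gate of origin.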
“QVHLVVSGGGLVQEGGSLSLRWAASGSTFEYYGMGWYTQAPGKERELVAAITVSGGSTYYADSVKGRFTISRDNEKNTVYLQIHSLKPEDSAVCYCAARPILYWYFRFDYWGQGTQVTVSS”: the “polyreactivity (PSR sort gate)” value was “low polyreactivity”. Regarding “QVQLVESGGGLVQAGGSLRLSCAASGFTFRYYTMGWYRQAPGKERELVAAITWSGGSTYYADSVKGRFTISRDNAKNTVYLQMNSLKPEDTAVYYCNAYPSYVSFDYWGQGTQVTVSS”, the “polyreactivity (PSR sort gate)” value is reported as “high polyreactivity”. In the case of “QVQLVESGGGLVLAGGSLRLSCAASGSIFGGYAMGWYRPAPGKERELVAAISSGDSTYYADSVKGRFTISRDNAKNTVYLQINSLKPEDTAVYYCAAAFFARDRKRYNYWGQGTQVTVSS”, the “polyreactivity (PSR sort gate)” value is given as “high polyreactivity”. Next, “QFQLVESAGGLFQAVGSHRLSCAASGRTFTQYAMGWYRQAPGKERELVAAISWRGGSTYYADSVKGRFTISRDNAKNTVYLQMNSLKPEDTAVYYCAKRYFRGYPLYDYWGQGTQVTVSS”: “high polyreactivity”. Next, “QVQLVESGGGLVQAGGSLRLSCAASGNIFVRYAMGWYRQAPGKERELVAAISRGGRTNYADSVKGRFTISRDNAKNTVYLQMNSLKPEDTAVYYCAADVRYHFYYWGQGTQVTVSS”: “high polyreactivity”; “QVQLVESGGGLVQAGGSLRLSCAASGSTFYFYAMGWYRQAPGKERELVATISYSDGSTYYADSVKGRFTISRDNAKNTVYLQMNSLKPEDSAVYYCAKGSNDWVNFGYDYWGQGTQVTVSS”: “low polyreactivity”. Next, “QDQLVESGGGLVQAGGSLRLSCAASGSTFFGNAMGWSRQAPGKERELVAAISRGGGSTYYADSVKGRLTISRDNAKNTVYLQMNCLKPEDTAVYYCNADDPWTGTAVSTPNDSWGQGTQVTVSS”: “low polyreactivity”; “QVQLVESGGGLVKAGGSLRLSCAASGSTFRKYAMGWYRQAPGKEREFVAAISSSGGRTYYADSVKGRFTISRDNAKNTVYFLMNSLKPEDTAVYYCNSYFRYSNDYWGQGTQVTVSS”: “high polyreactivity”. Consider “QVQLVESGGGLVQAGGSLRLSCAASGSTFDGNAMGWYRQAPGTERELVATINSDDSKNYADSVKGRFTISRDNAKNTVYLQMNSLKPEDTAVYYCAARLYVTPILSYVERYTNDYWGQGTQVTVSS”, for which the “polyreactivity (PSR sort gate)” value is “low polyreactivity”. Consider “QVQLVESGGGLVQAGGSLRLSCAASGRIYGAYAMGWYRQAPGKEMEMVAAITSAGSTLYADSVKGRFTISRDNAMNTVYLQMNSLNPEDTAVYYCAADGIARAYVLFDAYDFLYDYWGQGTQVTVSS”, for which the “polyreactivity (PSR sort gate)” value is listed as “low polyreactivity”. Next, “QVQLVESGGGLVQAGGSLRLSCAASGRIFLRYTMGWYRQAPGKERELVAAISARTTGTYYADSVKGRFTISRDNAKNTVYLQMNSLKPEDTAVYYCAAKSKLSRDLFSWGQGTQVTVSS”: “low polyreactivity”.

Turning to “QVQLVESGGGLVQAGGSLRLSCAASGITFGIYVMGWYRQAPGKERELVATISRSDDNTYYADSVKGRFTISRDNAKNTVYLQMNSLKPEDTAVYYCAADGVISAWYSSRDDYWGQGTQVTVSS”, the “polyreactivity (PSR sort gate)” value is “low polyreactivity”. Turning to “QVQLVESGGGLVQAGGSLRLSCAASGSILWLYVMGWYRQAPGKERELVATITSSGGSTYYADSVKGRFTISRDNAKNSVYLQMNSLKPEDTAVYYCAADYSRDEYDYWGQGTQVTVSS”, the “polyreactivity (PSR sort gate)” value is listed as “low polyreactivity”.

Consider “QVQLVESGGGLVQAGGSLRLSCAASGFTFYWYDMGWDRQAPGKEREFVAAIVQSGGSTYYADSVKGRFSISRDNAKITVYLQMKSLKPEDTAVYYGAARYILWDGDSWTEFDYWGQGTQVTVSS”, for which the “polyreactivity (PSR sort gate)” value is reported as “low polyreactivity”. Next, “QVQLVESGGGLVQAGGSLRLSCAASGSTFRRYAMGWYRQAPGKERELVAAITRRGGSTYYADSVKGRFTISRDNAKNTVYLQMNSLKPEDTAVYYCNAVPVVRAGHGYDSWGQGTQVTVSS”: “high polyreactivity”; “QVQLVESGGGLVQAGGSLRLSCAASGRTFRTYTMGWYRPAPGKERELVAAISKRGSSTYYADSVKGRFTISRDNAKNTVYLQMNSLKQEDTAVYYCAARSWLSNSPYGYWGQGTQVTVSS”: “high polyreactivity”.
